The source of these data is patent publication US20120107244A1 (UNIVERSIT T ULM, published 2012).

The series concerns the molecule itself. The series can be described thus: gel filtration (Superdex 200); elution volume against monomer, dimer and tetramer standards. (In gel filtration, larger molecules generally elute earlier.)

B1: monomeric eqFP611 variant as set forth in SEQ ID No. 1 (mRuby) (other)
chain: MNSLIKENMRMKVVLEGSVNGHQFKCTGEGEGNPYMGTQTMRIKVIEGGPLPFAFDILATSFMYGSRTFIKYPKGIPDFFKQSFPEGFTWERVTRYEDGGVITVMQDTSLEDGCLVYHAQVRGVNFPSNGAVMQKKTKGWEPNTEMMYPADGGLRGYTHMALKVDGGGHLSCSFVTTYRSKKTVGNIKMPGIHAVDHRLERLEESDNEMFVVQREHAVAKFAGLGGG
notes: not shown: N-terminal poly-His tag from the pQE-32 vector
Turning to B1, the binding result is listed as “no binding (tested: 4-30 mg/ml (0.16-1.2 mM))”.
